The text below walks through data of paper PMC5383399, “Kinesin-4 KIF21B is a potent microtubule pausing factor” (eLife, 2017).

Data set [1] deals with KIF21B-FL-ΔrCC-GFP (human). Nature of the data set: single-molecule fluorescence intensity and photobleaching-step analysis (TIRF); purified GFP fusions diluted in PBS and immobilized on plasma-cleaned coverslips, room temperature; compared with monomeric GFP and dimeric GFP-EB3.
Data set [2] addresses KIF21B-MD-CC1-GFP (purified) (human). Described as above.
The target is the same in data set [3]. Nature of the data set: single-molecule fluorescence intensity analysis (TIRF); GFP-tagged motors moving on MTs, compared with single GFP immobilized, or KIF5B-560-GFP moving, in a separate chamber on the same coverslip; 15 µM tubulin, 20 nM mCherry-EB3, MRB80 with 50 mM KCl, 30°C.
For data set [4], the target named is KIF21B-MD-CCΔrCC-GFP (human). The data set is described as follows: single-molecule fluorescence intensity and photobleaching-step analysis (TIRF); purified GFP fusions diluted in PBS and immobilized on plasma-cleaned coverslips, room temperature; compared with monomeric GFP and dimeric GFP-EB3.
Data set [5] addresses KIF21B-FL-GFP (full-length KIF21B-GFP) (human). The description is as above.
The target is the same in data set [6]. Nature of the data set: single-molecule fluorescence intensity analysis (TIRF); GFP-tagged motors moving on MTs, compared with single GFP immobilized, or KIF5B-560-GFP moving, in a separate chamber on the same coverslip; 15 µM tubulin, 20 nM mCherry-EB3, MRB80 with 50 mM KCl, 30°C.
Data set [7] deals with the molecule itself. The description is as above.

By stoichiometry N is commonly meant a count of units in the complex or per binding partner. In the case of KIF21B-FL-ΔrCC-GFP (natural protein), the stoichiometry N in data set [1] stood at 2.
In data set [2], “KIF21B-MD-CC1-GFP (purified) (domain or fragment)” showed a stoichiometry N of 2. Further, the fluorescence intensity relative to single monomeric GFP in data set [3] was 1.8 fold.
In the case of “KIF21B-MD-CCΔrCC-GFP (domain or fragment)”, the stoichiometry N in data set [4] was 2.
As for “KIF21B-FL-GFP (full-length KIF21B-GFP) (natural protein)”, the stoichiometry N in data set [5] and in data set [6] was 2 in each case.

B1: KIF5B-560-GFP (domain or fragment, UniProt P33176 1-560, looked up)
chain: MADLAECNIKVMCRFRPLNESEVNRGDKYIAKFQGEDTVVIASKPYAFDRVFQSSTSQEQVYNDCAKKIVKDVLEGYNGTIFAYGQTSSGKTHTMEGKLHDPEGMGIIPRIVQDIFNYIYSMDENLEFHIKVSYFEIYLDKIRDLLDVSKTNLSVHEDKNRVPYVKGCTERFVCSPDEVMDTIDEGKSNRHVAVTNMNEHSSRSHSIFLINVKQENTQTEQKLSGKLYLVDLAGSEKVSKTGAEGAVLDEAKNINKSLSALGNVISALAEGSTYVPYRDSKMTRILQDSLGGNCRTTIVICCSPSSYNESETKSTLLFGQRAKTIKNTVCVNVELTAEQWKKKYEKEKEKNKILRNTIQWLENELNRWRNGETVPIDEQFDKEKANLEAFTVDKDITLTNDKPATAIGVIGNFTDAERRKCEEEIAKLYKQLDDKDEEINQQSQLVEKLKTQMLDQEELLASTRRDQDNMQAELNRLQAENDASKEEVKEVLQALEELAVNYDQKSQEVEDKTKEYELLSDELNQKSATLASIDAELQKLKEMTNHQKKRAAEMMASLLK
notes: KIF5B (kinesin-1), residues 1–560; also called N-terminal fragment of kinesin-1, KIF5B residues 1–560; not shown: GFP, C-terminal, kept
On to B1, for which, in data set [7], the “fluorescence intensity relative to single monomeric GFP” value is around 1.8 fold and the “stoichiometry N” value was 2.
